Data from the RNAGym collection of RNA variant scans (doi:10.1073/pnas.2313332121).

B1: TPR t1 (parent)
chain: GACCAAUCUGCCCUCAGAGCUCGAGAACAUCUUCGGAUGCAGAGGAGGCAGGCUUCGGUGGCGCGAUAGCGCCAACGUCCUCAACCUCCAAUGCAUCCCACCACAUGAUGAUGCCUGAAGAGCCUUGGUUUUUUG

Variants of: B1
Assay: polymerase ribozyme fitness, log enrichment relative to wild type (log ratio); higher = more active; in vitro selection for triplet polymerase activity
Procedure, shortened: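 One round of in vitro selection, in triplicate, was applied to PCR-built, transcribed mutant libraries of each subunit of a heterodimeric triplet polymerase ribozyme. The steps were annealing with a biotinylated primer, partner subunit and triplets, incubation frozen at −7 °C, gel excision of extended constructs, streptavidin-bead capture and RT-PCR. Fitness is the logarithm, base 2, of genotype enrichment over wild-type enrichment from inverse-variance-weighted replicate averages of Illumina-sequenced inputs and outputs, keeping genotypes with ≥10 input reads and ≥1 read per output.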

Row | Variant | polymerase ribozyme fitness (log ratio)
1 | GACCAAUCUGCGCUCAGAGCUCGAGAACAUCUUCGGAUGCAGUGGAGGCAGGCUUCGGUGGCGCGAUAGGGCCAACGUCCUCAACCUCCAAUGCAUCCCACCACAUGAUGAUGCCUGAAGAGCGUUGGUUUUUUG [C12G A43U C70G C124G] | -4.85
2 | GACCAAUCUGCGCUCAGAGCUCGAGAACCUCUUCGGAUGCAGAGGAGGCAGGCUUCGGUGGCGCGAUAGCGCCAACGUCCUCAACCUCCAAUGCAUCCCACCACAUGAUGAUGCCUGAAGAGCCUUGGUUUUUUG [C12G A29C] | -1.57
3 | GACCAAUCUGCGCUCAGAGCUCGAGAACUUCUUCGGAUGCAGAGGAGGCAGGCUUCGGUGGCGCGAUAGCGCCAACGUCCUCAACCUCCAAUGCAUCCCACCACAUGAUGAUGCCUGAAGAGCCUUGGUUUUUUG [C12G A29U] | -1.54
4 | GACCAAUCUGCGCUCUGAGCUCGAGAACAUCUUCGGAUGCAGAGGAGGCAGGCUUCGGUGGCGCGAUAGCGUCAACGUCCUCAACCUCCAAUUCAUCCCACCACAUGAUGAAGCCUGAAGAGCCUUGGUUUUUUG [C12G A16U C72U G93U U112A] | -3.35
5 | GACCAAUCUGCGCUCAGAGCUCGAGAACAUCUUCGGAUGCAGAGGAGGCAGGCUUCGGUGGCGCGAUAGCGCCAACGUCCUCAACCUCCAAUGCAUCCCACCACAUGAUGAUGCCUGAAGAGCCUUGGUUUUUUG [C12G] | 0.29
6 | GACCAAUCUGCACUCAGAGCUCGAGAACAUCUUCGGAUGCAGAGGAGGCAGGCUUCGGUGGCGCGAUAGCGCCAACGUCCUCAACCUCCAAUGCAUCCCACCACAUGAAGAUGCCUGAAGAGCCUUGGUUUUUUG [C12A U109A] | -5.14
7 | GACCAAUCUGCGCUCAGAGCUCGAGAACAUCUUCGGUUGCAGAGGAGGCAGGCUUCGGUGCCGCGAUAGCGCCAACGUCCUCAACCUCCAAUGCAUCCCACCACAUGAUGAUGCCUGAAGAGCCUUGGUUUUUUG [C12G A37U G61C] | -1.78
8 | GACCAAUCUGCACUCAGAGCUCGAGAACAUCUUCGGAUGCAGAGGAGGCAGGCUUCGGUGGCGCGAUAGCGCCAACGUCCUCAACCUCCAAUGCAUCCCACCACAUGAUGAUGCCAGAAGAGCCUUGGUUUUUUG [C12A U116A] | -4.12
9 | GACCAAUCUGCGCUCAGAGCUCGAGAACAUCUUCGGAUGCAGUGCAGGCAGGCUUCGGUGGCGCGAUAGCGCAAACGACCUCAACCUCCAAGGCAUCCCACCACAUGAUGAUGCCUGAAGAGCCUUGGUUUUUUG [C12G A43U G45C C73A U78A U92G] | -2.67
10 | GACCAAUCUGCGCUCAGAGCUCGAGAACAUCUUCGGAUGCAGUGGAGGCAGGCUUCGGUGGCGCGAUAGAGCCAACGUUCUAAACCUCCAAUGCAACCCACCACAUGAUGAUGCCUGAAGAGCCUUGGUUUUUUG [C12G A43U C70A C79U C82A U96A] | -5.11
11 | GACCAAUCUGCACUCAGAGCUCGAGAACAUCUUCGGAUGCAGAGGAGGCAGGCUUCGGUGGCGCGAUAGCGCCAACGCCCUCAUCCUCCAAUGCAUCCCACCACAUGAUGAUGCCUGAAGAGCCUUGGUUUUUUG [C12A U78C A84U] | -1.77
12 | GACCAAUCUGCACUCAGAGCUCGAGAACAUCUUCGGAUGCAGAGGAGGCAGGCUUCGGUGGCGCGAUAGCGCCAACGUCCUCAACCUCCAAAGCAUGCCACCACAUGAUGAUGCCUGAAGAGGCUUGUUUUUUUG [C12A U92A C97G C123G G128U] | -6.73
13 | GACCAAUCUGCGCUCAGGGCUCGAGAACAUCUUCGGAUGCAGACGAGGCAGGCUUCGGUGGCGCGAUAGCCCCAACGUCCUCAUCCUCCAAUGCAUCCCACCACAUGAUGAUGCCUGAAGAGCCUUGGUUUUUUG [C12G A18G G44C G71C A84U] | -6.08
14 | GACCAAUCUGCGCUCAGAGCUCGAGAACAUCUUCGGAUGCAGCGGAGACAGGCUUCGGUGGCGCGAUAGCGCCAACGUCCUCAACCUCCAAUGCAUCCCACCACAUGAUGAUGCCUGAAGAGCCUUGGUUUUUUG [C12G A43C G48A] | -2.3
15 | GACCAAUCUGCGCUCAGAGCUCGAGAGCAUCUUCGGAUGCAGAGGAGGCAGGCUUCGGUGGCGCGAUGGCGCCAACGUCCUCAACCUCCAAUGCAUCCCACCACAUGAUGAUGCCUGAAGAGCCUUGGUUUUUUG [C12G A27G A68G] | -4.94
16 | GACCAAUCUGCGCUCUGAGCUCGAGAACAUCUUCGGAUGCAGAGGAGGCAGGCUCCGGUGGCGCGAUAGCGCCAACGCCCUCAACCUCCAAUGCAUCCCACCACAUGGUGAUGCCUGAAGAGUCUUGGUUUUUUG [C12G A16U U55C U78C A108G C123U] | -3.68
17 | GACCAAUCUGCACUCAGAGCUCGAGAACAUCUUCGGAUGCAGAGGAGGCAGGCUUCGGGGGCGCGAUAGCGCCAACGUCCUCAACCUCCAAUGCAUCCCACCACAUGAUGAUGCCUGAAGAGCCUUGGUUUUUUG [C12A U59G] | -0.837
18 | GACCAAUCUGCACUCAGAGCUCGAGAACAUCUUCGGAUGCAGAGGAGGCAGGCUUCGGCGGCGCGAUAGCGCCAACGUCCUCAACCUCCAAUGCAUCCCACCACAUGAUGAUGCCUGAAGAGCCUUGGUUUUUUG [C12A U59C] | -0.85
19 | GACCAAUCUGCGCUCAGAGCUCGAGAACAUCUUCGGAUGCAGUGGAGGCAGGCUUCGGUGACGCGAUAGCGCCAACGUCCUCAUCCUCCAAUGCAUCCCACCACAUGAUGAUGCCUGAAGAGCCUUGGUUUUUUG [C12G A43U G61A A84U] | -1.52
20 | GACCAAUCUGCGCUCAGUGCUCGAGAACAUCUUCGGAUGCAGAGUAGGCAGGCUUCGGUGGCUCGAUAGCGCCAACGUCCUCAACCUACAAUGCAUCCCACCACAUGAUGAUGCCUGAAGAGCCUUGGUUUUUUG [C12G A18U G45U G63U C88A] | -5.09
21 | GACCAAUCUGCGCUCAGUGCUCGAGAACAUCUUCGGAUGCAGAGGAGGCAGGCUUCGGUGGCGCGAUAGCGCCAACGUCCUCAACCUCCAAUGCAUCCCACCACAUGAUGAUGCCUGAAGAGCCUUGGUUUUUUG [C12G A18U] | -1.46
